Among the data in patent US20090227510A1 are HLA-A2 stabilizing ability relative to E39 values, retold here.

This test addresses HLA-A2 (human). Kind of test: HLA-A2 stabilization assay.

Regarding EIWTFSYKV [J65, variant of FBP epitope E39 (H5→F, Y7→T)], the HLA-A2 stabilizing ability relative to E39 was 0.5 fold of E39.
